According to US20260092121A1 (TALEM THERAPEUTICS, published 2026):
Residue numbers refer to the chain shown, from its start.

B1: anti-CD3 Fab clone 3-B05 (Fab, V domains shown)
VH: QVQLLQSAGGVVQPGRSLRLSCAASGFTFSTYAVHWVRQAPGKGLEWVAAISYDGAGKYYGDSVRGRFTISRDDSKNTVYLQMNSLRAEDTAVYYCAGEHYTLTDEEFDFWGQGTLVTVSS
VL: QSVLTQPPSVSAAPGQKVTISCSGSASNIGNNYVSWYQQLPGTAPKLLIYDNNQRPSGIPDRFSGSKSGTSATLGITGLQTGDEADYYCGTWDTSLRGVVFGGGTKVTVL
notes: Fab, HEK293
B2: anti-CD3 Fab clone 3-B06 (Fab, V domains shown)
VH: QVQLQQSGAEVKKPGASLKVSCKASGYTFTRYGFSWVRQAPGQGLEWMGWISAYNGNTNYAQKFQGRVTMTTDTSTSTAYMEMRSLRSDDTAVYYCARDRGYCSGGSCPGIDAFDIWGQGTMVTVSS
VL: SYVLTQPPSVSVAPGQTAKITCGGDNIENKYVHWYQQKPGQAPVVVVYDDSDRPSGIPDRFSGSNSGNTATLTITRVEAGDEADYYCQVWDSSSDRVVFGGGTKLTVL
notes: Fab, HEK293; not the anti-TrkB clone 3B06
B3: anti-CD3 Fab clone 7-C11 (Fab, V domains shown)
VH: EVQLVESGGGLVQPGGSLRLSCAASGFTSNTYAMSWVRQAPGKGLEWVSTISGSGSSTNYADSVKGRFTISRDSSKNTLYLQMNSLRAEDTAVYYCARIERYSYGIDYWGQGTLVTVSS
VL: NFMLTQPHSVSESPGKTVTISCTRNTGGIAANYVQWYHQRPGSAPTTVIYEDKQRPSGVPGRFSGSIDGSSNSASLTISGLQAEDEGDYYCHSSDNNNQVFGGGTKLTVL
notes: Fab, HEK293
B4: anti-CD3 Fab clone 5-A05 (Fab, V domains shown)
VH: QVQLVQSGAEGKKPGSSVKVSCKASGGTFSSYAISWVRQAPGQGLEWMGGIIPIFGTANYAQKFQGRVTITADESTSTAYMELRSLRSDDTAVYYCARDAVVVADSGSMDVWGQGTTVTVSS
VL: not shown
notes: Fab, HEK293
B5: anti-CD3 Fab clone 1-H01 (Fab, V domains shown)
VH: B4 VH with G11V, R84S, D89E
VL: not shown
notes: Fab, HEK293
B6: anti-CD3 Fab clone 3-A06 (Fab, V domains shown)
VH: QVTLRESGGGLVKPGGSLRLSCSASGFTFRGFYMAWIRQAPGKGLEWVAYISSSGSAVYHADSVKGRFTVSRDNAKNLMYLEMNSLRADDTAVYYCARDGGTGGFDYWGQGTLVTVSS
VL: NFMLTQPHSVSESPGKTVAISCSRSSGSVASNYVQWYQQRPGNVPTTIIYQDNQRPSGVPDRFSGSIDKSSNSASLTISGLKTEDEADYYCQSYDGRRLIFGGGTKLTVL
notes: Fab, HEK293; not the anti-TrkB clone 3A06
B7: anti-CD3 Fab clone 4-A01 (Fab, V domains shown)
VH: QVQLVQSEGGLVQPGGSLRLSCAASGFSFGSSAMSWVRQAPGRGLEWVSGISHSGSTTYYADSVKGRFTISRDNSKNTLYLQMNSLRVEDTAVYYCAKIGAYGYYFHYWGQGTLVTVSS
VL: NFMLTQPHSVSESPGKTVTISCTGSGGNIGNNYVQWYQQRPDSPPSTVIYDDSQRPSGVPDRFSGSIDRSSNSASLTISGLRTEDEADYYCQSSDSGRVVFGGGTKLTV
notes: Fab, HEK293
B8: anti-CD3 Fab clone 4-G03 (Fab, V domains shown)
VH: B7 VH with V5L, E8A, F27Y, V88A
VL: NFMLTQPHSVSESPGKTVTISCTGNGGNIASNYVQWYQHRPDSAPIAVIYDDSQRPSGIPDRFSGSIDRSSNSASLTISGLRPEDEADYYCQSSDNANVVFGGGTKLTVL
notes: Fab, HEK293
B9: anti-CD3 Fab clone 7-E01 (Fab, V domains shown)
VH: B7 VH with V5Q, E8G
VL: NFMLTQPHSVSESPGRTVTISCTRSSGSIASNYVQWYQQRPGSAPTTVIYEDNQRLSGVPDRFSGSIDRSSNSASLTISGLKTEDEADYYCQSSDDSNHLVFGGGTKLTVL
notes: Fab, HEK293
B10: anti-CD3 Fab clone 3-A03 (Fab, V domains shown)
VH: EVQLVESGGGVVQPGRSLRLSCAASGFTFSSYAMHWVRQAPGKGLEWVSAISGSGGSTYYADSVKGRFTISRDNSKNTLYLQMNSLRAEDTAVYYCARDAHDYWGQGTLVTVSS
VL: QSVLTQPPSVSAAPGQKATISCSGGSSNLGNNYVSWYQQLPGTAPKLLIYDNNKRPSGIPDRFSGSKSGTSAALAITGLQTGDEADYYCGTWDSSLSAGVFGGGTKLTVL
notes: Fab, HEK293
B11: anti-CD3 Fab clone 3-B04 (Fab, V domains shown)
VH: QVQLVQSGGGLVQPGRSLRLSCAASGFTFDDFAMHWVRQAPGKGLEWVSGITWNSAATIYADSVKGRFTISRDNAKNSLYLQMNSLRPEDTAVYYCARDRGGPKDPFDIWGQGTMVTVSS
VL: B10 VL with Q16K, A18V, L29I, N31K, A73T, A75G, G99V
notes: Fab, HEK293; not the anti-TrkB clone 3B04
B12: anti-CD3 Fab clone 1-D03 (Fab, V domains shown)
VH: EVQLVQSGGGLVKPGRSLRLSCTASGFTFGDYAMSWFRQAPGKGLEWVGFIRSKAYGGTTEYAASVKGRFTISRDDSKSIAYLQMNSLKTEDTAVYYCTRVSDIYGMDVWGQGTTVTVSS
VL: B10 VL with A18V, G25S, L29I, A73T, A75G, G90A, S94D, S97K
notes: Fab, HEK293
B13: anti-CD3 Fab clone 7-A11 (Fab, V domains shown)
VH: EVQLVESGGGVVQPGRSLRLSCAASGFTFSSYGIHWVRQAPGKGLEWVSAISGSGGSTYYADSVKGRFTISRDNAKNSLYLQMNSLRDEDTAVYYCARERLIGMDVWGQGTTVTVSS
VL: B9 VL with S11A, R16K, L56P, R69S, S94Y, D96S, S97G, H99P, L100R
notes: Fab, HEK293
B14: anti-CD3 Fab clone 7-G01 (Fab, V domains shown)
VH: QVQLVQSGPEVKKPGASVNISCKTSGYTFRNYYVHWVRQAPGQGFEYMGRVNPNSGNARYAQKFQGRVAMTSDTSTSTAYMELSSLRSEDTAVYYCAREPPATVAYYYGMDVWGQGTTVTVSS
VL: NFMLTQPHSVSESPGKTVTISCTGSSGSIASNYVHWYQQRPGSAPTTVIYEDNQRPSGVPDRFSGSIDSSSNSASLTISGLKTEDEADYYCRSYDSSNRNWVFGGGTKLTVL
notes: Fab, HEK293
B15: anti-CD3 Fab clone 4-G04 (Fab, V domains shown)
VH: QVNLRESGGGVVQPGGSLRLSCAASGFTFRRYGMNWIRQAPGKGLEWVSSISSSSSYIYYADSVKGRFTISRDNAKNSLYLQMNSLRAEDTAMYYCVRDGRFINGLDVWGQGTLVTVSS
VL: NFMLTQPHSVSESPGRTVTISCTRSSGSIASNYVQWYQQRPGSSPTTVIYDDKKRPSGVPDRFSGSIDSSTNSASLTISGLKTEDEADYYCQSYDSSNHWVFGGGTKVTVL
notes: Fab, HEK293
B16: anti-CD3 Fab clone 3-A05 (Fab, V domains shown)
VH: QVQLLQSAAEVKKPGASVKVPCKASGYTFTGHYMHWVRQAPGQGLEWMGIINPRGGSTSYAQKFQGRVTMTRDTSTSTVYMELSSLRSEDTAVYYCARESIAAAGPYFDYWGQGTLVTVSS
VL: QSALTQPHSVSESPGKTVTISCTRTSGRIGSNYVQWYQQRPGSAPTVVIYEDNQRPSGVPDRFSGSIDSSTNSASLTISRLKTEDEADYYCQSYDSGVVVVFGGGTKLTV
notes: Fab, HEK293; not the anti-TrkB clone 3A05
B17: anti-CD3 Fab clone 1-G11 (Fab, V domains shown)
VH: QVQLVQSGAEVKKPGASVKVSCKASGYTFTSYGISWVRQAPGQGLEWMGWISAYNGNTNYAQKLQGRVTMTTDTPTSTAYMEVRSLRSDDTAVYYCAREVNYGLDVWGQGTLVTVSS
VL: QPVLTQPPSASGTPGQRVTISCSGSSSNIGSKYVYWYQQLPGTAPKLLIYRNNQRPSGVPDRFSGSKSGTSASLVISGLRSEDEADYHCAAWDDSLSGRVFGGGTKLTVL
notes: Fab, HEK293
B18: anti-CD3 Fab clone 3-C04 (Fab, V domains shown)
VH: EVQLVESGGGLVQPGGSLRLSCAASGFTFNNFYMNWVRQAPGKGLEWISTISRGGNSVYYADSVKGRFTVSRDNAKNSLFLQMDSLRDEDTAVYYCVRGGDFLYWGQGTLVTVSS
VL: NFMLTQPHSVSESPGKTVTISCTRSTGSIAGNYVQWYQQRPGSSPTTVILEDKQRPSGVPDRFSGSIDTSSNSATLTISGLKTEDEADYYCQSYDSGNVIFGGGTKLTVL
notes: Fab, HEK293
B19: anti-CD3 Fab clone 1-C12 (Fab, V domains shown)
VH: QVQLQQSGPGLVKPSQTLSLTCAISGDSVSSNSAAWNWIRQSPSRGLEWLGRTYYRSKWYNDYAVSVKSRITINPDTSKNQFSLQLNSVTPEDTAVYYCARGITGTGYGMDVWGQGTLVTVSS
VL: QSVLTQPPSASGTPGQRVTISCSGSSSNIGRNHVYWYQQLPGTAPKLLIYNNDQRPSGVPDRFSGSKSGTSGSLTISGLQAEDEADYYCAAWDDSLSSGVFGGGTKVTVL
notes: Fab, HEK293
B20: anti-CD3 Fab clone 5-C03 (Fab, V domains shown)
VH: QVQLQQSGPGLVKPSQTLSLTCAISGDSVSSNSAAWNWIRQSPSRGLEWLGRTYYRSKWYNDYAVSVKSRITINPDTSKNQFSLQLNSVTPEDTAVYYCATWGMDVWGQGTTVTVSS
VL: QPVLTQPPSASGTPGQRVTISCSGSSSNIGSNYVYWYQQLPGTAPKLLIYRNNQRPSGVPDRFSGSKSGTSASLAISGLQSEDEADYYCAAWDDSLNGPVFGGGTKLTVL
notes: Fab, HEK293
B21: anti-CD3 Fab clone 2-C02 (Fab, V domains shown)
VH: B20 VH with Q85H
VL: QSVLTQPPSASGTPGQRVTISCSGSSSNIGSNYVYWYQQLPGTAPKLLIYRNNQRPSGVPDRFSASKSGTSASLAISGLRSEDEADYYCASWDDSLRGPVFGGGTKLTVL
notes: Fab, HEK293
B22: anti-CD3 Fab clone 6-C04 (Fab, V domains shown)
VH: B20 VH with Q85H, T112M
VL: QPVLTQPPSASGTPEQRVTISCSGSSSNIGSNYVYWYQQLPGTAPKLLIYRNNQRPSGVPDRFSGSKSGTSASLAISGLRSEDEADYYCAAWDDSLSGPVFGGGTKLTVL
notes: Fab, HEK293
B23: anti-CD3 Fab clone 7-B02 (Fab, V domains shown)
VH: QVQLVQSGGGLVQPGGSLRLSCAASGFTFSRYSMSWVRQAPGKGLEWVSSISGGGGSTYYADSVKGRFTISRDNSDGSVYLKMNSLAAGDTAAYYCVRGGWYRTPFEFWGRGTLVTVSS
VL: SYVLTQPPSVSASPGQTASITCSGHKLGDKYTSWYQQKPGQSPVLVIYQDNKRPSGIPERFSGSNSGNTATLTISGTQAMDEADYYCQAWDSSTNYVFGTGTKLTVL
notes: Fab, HEK293
B24: anti-CD3 Fab clone 8-B12 (Fab, V domains shown)
VH: HVQLVQSGGGSAQHGGSLRLSCAASGFTFNNSYMNWVRQAPGKRLEWISTISRGGNSVYYADSVKGRFTVSRDNTKNLTFLQMDSLRDEDTAVYYCAKGGDYLYWGQGTLVTVSS
VL: NFMLTQPHSVSESPGKTVTLSCTRSSGSIASKYVQWYQQRPGSAPTIVIFDDDRRPSGVPDRFSGSIDRSSNSASLTIFGMKTEDEADYYCQSYDSSNWVFGGGTKLTVL
notes: Fab, HEK293

Biological target: T1, biotinylated His-Avi-tagged human CD3δ/ε heterodimer (human, UniProt P07766 23-126; P04234 22-105, biotinylated)
T1 construct: bought, expressed from HEK293; also called CD30/8; Biotin-CD3
Assay: ELISA

T1 sequence (P07766 23-126, stated change not applied, chain 1 of 2): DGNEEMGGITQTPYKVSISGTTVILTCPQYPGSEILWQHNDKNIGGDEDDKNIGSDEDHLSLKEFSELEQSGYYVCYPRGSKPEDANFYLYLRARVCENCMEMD
T1 sequence (P04234 22-105, stated change not applied, chain 2 of 2): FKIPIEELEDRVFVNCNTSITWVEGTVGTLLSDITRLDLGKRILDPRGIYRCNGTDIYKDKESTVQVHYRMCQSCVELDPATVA

| EC50 | Binder |
| --- | --- |
| 7.2 µg/mL | B1 |
| 16.9 µg/mL | B2 |
| 52.3 µg/mL | B3 |
| 4.3 µg/mL | B4 |
| 6.8 µg/mL | B5 |
| 3.6 µg/mL | B6 |
| 19.5 µg/mL | B7 |
| 16.8 µg/mL | B8 |
| 7.9 µg/mL | B9 |
| 5.2 µg/mL | B10 |
| 10.9 µg/mL | B11 |
| 174 µg/mL | B12 |
| 34.9 µg/mL | B13 |
| 6.3 µg/mL | B14 |
| 73.8 µg/mL | B15 |
| 11.4 µg/mL | B16 |
| 7.9 µg/mL | B17 |
| 5.9 µg/mL | B18 |
| 19.2 µg/mL | B19 |
| 23.9 µg/mL | B20 |
| 23.9 µg/mL | B21 |
| 47.7 µg/mL | B22 |
| 12.1 µg/mL | B23 |
| 38.2 µg/mL | B24 |
